Common to all, as to test: ITC; 25 °C; 50 mM Tris pH 7.5, 100 mM NaCl, 1 mM EDTA, 1 mM DTT; 1 mM TBK1 fragment in the syringe, 0.1 mM OPTN or NAP1 fragment in the cell; one-site binding model
Assay [1] deals with OPTN L47Q (ITC sample) (human) (UniProt Q96CV9).
Assay [2] concerns the target OPTN L54Q (ITC sample) (human) (UniProt Q96CV9).
The target of assay [3] is OPTN M44Q (ITC sample) (human) (UniProt Q96CV9).

This note sets out measurements from paper PMC5027247.

B1: TBK1 CTD (residues 677–729) (domain or fragment)
chain: YPSSNTLVEMTLGMKKLKEEMEGVVKELAENNHILERFGSLTMDGGLRNVDCL
For orientation: Kd means the equilibrium constant for the complex coming apart. Read a high Kd as a looser complex. On to B1, for which the Kd in assay [1] amounted to 26 µM; in assay [2] it was 20 µM; in assay [3] it was 22.6 µM.
